This test deals with T1, purified AdipoR1Δ88 (human adiponectin receptor 1, residues 89–375), as used for SPR and antibody screening (human, UniProt Q96A54 89-375).
T1 construct: adiponectin receptor 1 (AdipoR1), human, residues 89-375 (N-terminally truncated mutant Δ88); Same construct as m1; SDS-denatured in the dot blot; source: Trichoplusia ni (High Five) insect cells, baculovirus; purified; reconstituted into liposomes for SPR and ELISA
T1 sequence (looked up): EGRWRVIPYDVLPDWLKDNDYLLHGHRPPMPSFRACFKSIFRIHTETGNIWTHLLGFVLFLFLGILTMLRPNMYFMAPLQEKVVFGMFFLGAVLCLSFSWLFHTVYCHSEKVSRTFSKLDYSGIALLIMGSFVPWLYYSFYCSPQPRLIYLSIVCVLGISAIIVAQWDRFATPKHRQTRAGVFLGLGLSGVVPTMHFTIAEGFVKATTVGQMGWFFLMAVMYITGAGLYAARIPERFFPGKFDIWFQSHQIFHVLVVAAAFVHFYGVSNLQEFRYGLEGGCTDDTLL
Put plainly: SPR; purified AdipoR1Δ88 reconstituted into liposomes (egg yolk PC, biotinyl-PE) and immobilised on a sensor chip SA; osmotin 0.5–8 μM as analyte; Biacore T200. Particulars: both partners purified. A general note: Surface plasmon resonance follows binding to a sensor surface in real time, without labels.

B1: osmotin (ligand)
chain: ATIEVRNNCPYTVWAASTPIGGGRRLDRGQTWVINAPRGTKMARVWGRTNCNFNAAGRGTCQTGDCGGVLQCTGWGKPPNTLAEYALDQFSGLDFWDISLVDGFNIPMTFAPTNPSGGKCHAIHCTANINGECPRELRVPGGCNNPCTTFGGQQYCCTQGPCGPTFFSKFFKQRCPDAYSYPQDDPTSTFTCPGGSTNYRVIFCPNGQAHPNFPLEMPGSDEVAK
In general, Kd refers to a measure of binding affinity in units of concentration. Regarding B1, the Kd turned out to be 700 nM.

Source of the values: article PMC4329188, “Expression, purification, crystallization, and preliminary X-ray crystallographic studies of the human adiponectin receptors, AdipoR1 and AdipoR2” (Journal of Structural and Functional Genomics, 2015).
